Reference: patent US20250076311A1 (Chugai, published 2025)
Changes are numbered by the printed parent chain. One block for each binder: values may come before it.

Assays:
[1] = molecular target: T1, cynomolgus monkey FcγRIIIaS extracellular domain with C-terminal His-tag (cynomolgus monkey, UniProt Q8SPW2 21-206 at identity 1.00)); assay: SPR (Biacore), KD of SG1 / KD of variant
T1 construct: also called cyno FcgRIIIaS; cynoFcγRIIIaS
T1 chain: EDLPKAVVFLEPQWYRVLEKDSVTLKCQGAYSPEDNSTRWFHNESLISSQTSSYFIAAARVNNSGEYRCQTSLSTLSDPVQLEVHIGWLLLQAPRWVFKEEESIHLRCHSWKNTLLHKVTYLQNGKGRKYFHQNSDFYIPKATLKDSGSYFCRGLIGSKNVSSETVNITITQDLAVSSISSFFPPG

[2] = molecular target: T2, cynomolgus monkey FcγRIIa3 extracellular domain with C-terminal His-tag (cynomolgus monkey); assay: SPR (Biacore), KD of SG1 / KD of variant
T2 construct: also called cyno FcgRIIa3; cynoFcγRIIa3
T2 chain: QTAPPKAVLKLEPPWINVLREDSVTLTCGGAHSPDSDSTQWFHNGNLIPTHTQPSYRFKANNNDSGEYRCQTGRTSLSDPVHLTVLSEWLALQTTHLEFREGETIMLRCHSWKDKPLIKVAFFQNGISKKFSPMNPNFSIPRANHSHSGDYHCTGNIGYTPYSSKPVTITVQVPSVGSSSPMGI

[3] = molecular target: T3, human FcγRIIaH extracellular domain with C-terminal His-tag (human, UniProt P12318 34-217); assay: SPR (Biacore), KD of SG1 / KD of variant
T3 construct: also called human FcgRIIaH; FcγRIIa (type H)
T3 sequence: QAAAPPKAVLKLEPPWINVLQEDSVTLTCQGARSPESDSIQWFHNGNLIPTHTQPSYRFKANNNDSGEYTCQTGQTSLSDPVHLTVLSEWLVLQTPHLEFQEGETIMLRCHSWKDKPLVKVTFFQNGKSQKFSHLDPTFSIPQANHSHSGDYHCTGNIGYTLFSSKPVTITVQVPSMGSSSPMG

[4] = molecular target: T4, human FcγRIIaH extracellular domain, His-tagged (human, UniProt P12318 34-217); assay: SPR (BIACORE), antibody captured, FcγR analyte, 25 C; KD of SG1 divided by KD of variant
T4 construct: also called human FcγRIIa (type H); FcgRIIaH
T4 sequence: T3 sequence
Procedure: (§1) The kinetic analysis of interactions between these antibodies and FcγR was carried out using BIACORE® T200 or BIACORE® 4000 (GE Healthcare). HBS-EP+ (GE Healthcare) was used as the running buffer, and the measurement temperature was set to 25° C. […] After the measurement, the antibody captured on the chip was washed off by allowing reaction with 10 mM glycine-HCl, pH1.5 and 25 mM NaOH so that the chip was regenerated and used repeatedly. The sensorgrams obtained as measurement results were analyzed by the 1:1 Langmuir binding model using the BIACORE® Evaluation Software to calculate the binding rate constant ka (L/mol/s) and dissociation rate constant kd (1/s), and the dissociation constant KD (mol/L) was calculated from these values. […] Regarding such interactions, KD values were calculated using the following 1:1 binding model described in BIACORE® T100 Software Handbook BR1006-48 Edition AE.

[5] = molecular target: T5, cynomolgus monkey FcγRIIIaS extracellular domain, His-tagged (cynomolgus monkey, UniProt Q8SPW2 21-206 at identity 1.00)); assay: as above
T5 construct: also called cyno FcγRIIIaS; cynoFcgRIIIaS
T5 chain: T1 chain
Procedure: as §1

[6] = molecular target: T6, cynomolgus monkey FcγRIIa3 extracellular domain with C-terminal His-tag (cynomolgus monkey); assay: SPR; KD of SG1 / KD of variant
T6 construct: also called cyno FcγRIIa3; FcgRIIa3
T6 chain: T2 chain

[7] = molecular target: T7, cynomolgus monkey FcγRIIIaS extracellular domain with C-terminal His-tag (cynomolgus monkey, UniProt Q8SPW2 21-206 at identity 1.00)); assay: SPR; KD of SG1 / KD of variant
T7 construct: also called cyno FcγRIIIaS; FcgRIIIaS
T7 chain: T1 chain

[8] = molecular target: T8, human FcγRIIIaV extracellular domain with C-terminal His-tag (human, UniProt P08637 17-208); assay: SPR; KD of SG1 / KD of variant
T8 construct: also called human FcgRIIIaV; FcgRIIIaV
T8 sequence (P08637 17-208 F176V): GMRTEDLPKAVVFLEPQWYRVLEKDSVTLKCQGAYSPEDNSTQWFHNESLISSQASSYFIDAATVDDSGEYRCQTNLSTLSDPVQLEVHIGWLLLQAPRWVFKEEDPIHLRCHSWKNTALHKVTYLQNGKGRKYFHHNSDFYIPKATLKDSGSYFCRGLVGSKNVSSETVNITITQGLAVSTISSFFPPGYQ

[9] = molecular target: T9, cynomolgus monkey FcγRIIa2 extracellular domain with C-terminal His-tag (cynomolgus monkey); assay: SPR; KD of SG1 / KD of variant
T9 construct: also called cyno FcγRIIa2; FcgRIIa2
T9 chain: T2 chain with I127K, K130N, P133H, R142Q

[10] = molecular target: T10, human FcγRIIIaV extracellular domain, His-tagged (human, UniProt P08637 17-208); assay: SPR (BIACORE), antibody captured, FcγR analyte, 25 C; KD of SG1 divided by KD of variant
T10 construct: also called human FcγRIIIa (V158); FcgRIIIaV
Procedure: as §1

[11] = molecular target: T11, human FcγRIIIaV extracellular domain with C-terminal His-tag (human, UniProt P08637 17-208); assay: SPR (Biacore), KD of SG1 / KD of variant
T11 construct: also called human FcgRIIIaV
T11 sequence (P08637 17-208 F176V): as above

[12] = molecular target: T12, human FcγRIIaR extracellular domain with C-terminal His-tag (human, UniProt P12318 34-217); assay: SPR (Biacore), KD of SG1 / KD of variant
T12 construct: also called human FcgRIIaR; FcγRIIa (type R)
T12 chain: T3 sequence with H134R

[13] = molecular target: T13, cynomolgus monkey FcγRIIa2 extracellular domain with C-terminal His-tag (cynomolgus monkey); assay: SPR (Biacore), KD of SG1 / KD of variant
T13 construct: also called cyno FcgRIIa2; cynoFcγRIIa2
T13 chain: T2 chain with I127K, K130N, P133H, R142Q

[14] = molecular target: T11, human FcγRIIIaV extracellular domain …; assay: SPR (Biacore), antibody captured, FcgR analyte
[15] = molecular target: T12, human FcγRIIaR extracellular domain …; assay: SPR (Biacore), antibody captured, FcgR analyte
[16] = molecular target: T14, cynomolgus monkey FcγRIIb extracellular domain, His-tagged (cynomolgus monkey); assay: SPR (BIACORE), antibody captured, FcγR analyte, 25 C; KD of SG1 divided by KD of variant
T14 construct: also called cyno FcγRIIb; cynoFcgRIIb
T14 chain: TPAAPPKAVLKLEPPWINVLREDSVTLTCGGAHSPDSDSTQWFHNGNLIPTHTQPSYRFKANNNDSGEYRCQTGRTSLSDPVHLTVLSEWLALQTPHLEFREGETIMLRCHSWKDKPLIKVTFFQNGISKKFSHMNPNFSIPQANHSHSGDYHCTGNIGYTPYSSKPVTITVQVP
Procedure: as §1

[17] = molecular target: T15, cynomolgus monkey FcγRIIa1 extracellular domain with C-terminal His-tag (cynomolgus monkey); assay: SPR; KD of SG1 / KD of variant
T15 construct: also called cyno FcγRIIa1; FcgRIIa1
T15 chain: T2 chain with T95P, A121T, S128A, P133H, N135D

[18] = molecular target: T16, human FcγRIIaR extracellular domain with C-terminal His-tag (human, UniProt P12318 34-217); assay: SPR; KD of SG1 / KD of variant
T16 construct: also called human FcγRIIa (type R); FcgRIIaR
T16 chain: T3 sequence with H134R

T10 sequence (P08637 17-208 F176V): as the sequence (P08637 17-208 F176V) above

B6: M103205H795-MY466/M103202L889-SK1 (antibody)
heavy: QVTLKESGPVLVKPTETLTLTCTVSGIDLSHDDISWVRQAPGKGLEWVGIISYAGSTYYASWAKGRLTISKDTSKNQVVLTMTNMDPVDTATYYCARGVPAYSHGGDLWGQGTLVTVSSASTKGPSVFPLAPSSKSTSGGTAALGCLVKDYFPEPVTVSWNSGALTSGVHTFPAVLQSSGLYSLSSVVTVPSSSLGTQTYICNVNHKPSNTKVDKKVEPKSCDKTHTCPPCPLPELLTGPSVFLFPPKPKDTLMISRTPEVTCVVVDVSDEDPEVKFNWYVDGVEVHNAKTKPREEQYNSTYRVVSVLTVLHQDWLNGKEYKCKVSNKALPKPIEKTISKAKGQPREPQVYTLPPSREEMTKNQVSLTCLVKGFYPSDIAVEWESNGQPENNYKTTPPVLDSDGSFFLYSKLTVDKSRWQQGNVFSCSVMHEALHNHYTQKSLSLSP
light: DIVMTQSPATLSLSPGERATLSCTSSQSVYHANWLSWFQQKPGQPPKLLIYWASTLAYGVPSRFSGSGSGTDFTLTISSLQPEDAATYYCAGGYGGGRYAFGQGTKVEIKRTVAAPSVFIFPPSDEQLKSGTASVVCLLNNFYPREAKVQWKVDNALQSGNSQESVTEQDSKDSTYSLSSTLTLSKADYEKHKVYACEVTHQGLSSPVTKSFNRGEC
notes: Substitutions in EU numbering on SG1
KD fold (SG1 = 1) [11]: 0.2 fold | KD fold (SG1 = 1) [13]: 2.8 fold | Kd [14]: 4600 nM | Kd [15]: 260 nM

B7: M103205H795-MY453/M103202L889-SK1 (antibody, human IgG1, kappa, name in EU numbering)
heavy: B6 heavy with L233A, P234R
light: B6 light
KD fold (SG1 = 1) [5]: 0.2 fold | KD fold (SG1 = 1) [10]: 0.2 fold | KD fold (SG1 = 1) [16]: 0.9 fold

B8: M103205H795-MY457/M103202L889-SK1 (antibody, human IgG1, kappa, name in EU numbering)
heavy: B6 heavy with L233A, P234W
light: B6 light
KD fold (SG1 = 1) [4]: 5.6 fold

B11: M103205H795-MY273 (heavy chain) with M103202L889-SK1 (light chain) (antibody, human IgG1, kappa, name in EU numbering)
heavy: B6 heavy with L233A, T238L, P398K
light: B6 light
notes: Substitutions introduced into M103205H795-SG1; positions in EU numbering
KD fold (SG1 = 1) [7]: 0.21 fold | KD fold (SG1 = 1) [17]: 0.9 fold

B12: M103205H795-MY452/M103202L889-SK1 (antibody, human IgG1, kappa, name in EU numbering)
heavy: B6 heavy with L233A, P234Q
light: B6 light
KD fold (SG1 = 1) [4]: 2.9 fold | KD fold (SG1 = 1) [5]: 0.2 fold

Further lines, results first:

KD fold (SG1 = 1) [1]: 0.2 fold | KD fold (SG1 = 1) [2]: 1.5 fold | KD fold (SG1 = 1) [3]: 1.5 fold
B1: M103205H795-MY443/M103202L889-SK1 (antibody, human IgG1, kappa)
heavy: B6 heavy with L233A, P234E
light: B6 light
notes: as for B6

KD fold (SG1 = 1) [4]: 2.7 fold | KD fold (SG1 = 1) [5]: 0.2 fold
B2: M103205H795-MY455/M103202L889-SK1 (antibody, human IgG1, kappa, name in EU numbering)
heavy: B6 heavy with L233A, P234T
light: B6 light

KD fold (SG1 = 1) [6]: 1.5 fold | KD fold (SG1 = 1) [7]: 0.16 fold | KD fold (SG1 = 1) [8]: 0.09 fold | KD fold (SG1 = 1) [9]: 1.1 fold
B3: M103205H795-MY308 (heavy chain) with M103202L889-SK1 (light chain) (antibody, human IgG1, kappa, name in EU numbering)
heavy: B6 heavy with L233A, D270E
light: B6 light
notes: as for B11

KD fold (SG1 = 1) [10]: 0.2 fold
B4: M103205H795-MY449/M103202L889-SK1 (antibody, human IgG1, kappa, name in EU numbering)
heavy: B6 heavy with L233A, P234L
light: B6 light

KD fold (SG1 = 1) [2]: 8.9 fold | KD fold (SG1 = 1) [11]: 0.2 fold | KD fold (SG1 = 1) [12]: 7.5 fold | KD fold (SG1 = 1) [3]: 6.5 fold
B5: M103205H795-MY444/M103202L889-SK1 (antibody, human IgG1, kappa)
heavy: B6 heavy with L233A, P234F
light: B6 light
notes: as for B6

KD fold (SG1 = 1) [7]: 0.06 fold | KD fold (SG1 = 1) [8]: 0.01 fold | KD fold (SG1 = 1) [17]: 0.9 fold
B9: M103205H795-MY219 (heavy chain) with M103202L889-SK1 (light chain) (antibody, human IgG1, kappa, name in EU numbering)
heavy: B6 heavy with L233A, T238G, G239Y
light: B6 light
notes: as for B11

KD fold (SG1 = 1) [5]: 0.2 fold | KD fold (SG1 = 1) [10]: 0.2 fold | KD fold (SG1 = 1) [16]: 1.8 fold
B10: M103205H795-MY454/M103202L889-SK1 (antibody, human IgG1, kappa, name in EU numbering)
heavy: B6 heavy with L233A, P234S
light: B6 light

KD fold (SG1 = 1) [6]: 5.5 fold | KD fold (SG1 = 1) [18]: 4 fold | KD fold (SG1 = 1) [7]: 0.41 fold | KD fold (SG1 = 1) [17]: 4.2 fold
B13: M103205H795-MY271 (heavy chain) with M103202L889-SK1 (light chain) (antibody, human IgG1, kappa, name in EU numbering)
heavy: B6 heavy with L233A, T238V, P398K
light: B6 light
notes: as for B11
